# Experimental data as given in patent publication US4251628A, “Substrates for angiotensin converting enzyme” (priority 1978, dated 1981).
# B1: angiotensin converting enzyme (ACE) (Homo sapiens) (protein)
# chain: LDPGLQPGNFSADEAGAQLFAQSYNSSAEQVLFQSVAASWAHDTNITAENARRQEEAALLSQEFAEAWGQKAKELYEPIWQNFTDPQLRRIIGAVRTLGSANLPLAKRQQYNALLSNMSRIYSTAKVCLPNKTATCWSLDPDLTNILASSRSYAMLLFAWEGWHNAAGIPLKPLYEDFTALSNEAYKQDGFTDTGAYWRSWYNSPTFEDDLEHLYQQLEPLYLNLHAFVRRALHRRYGDRYINLRGPIPAHLLGDMWAQSWENIYDMVVPFPDKPNLDVTSTMLQQGWNATHMFRVAEEFFTSLELSPMPPEFWEGSMLEKPADGREVVCHASAWDFYNRKDFRIKQCTRVTMDQLSTVHHEMGHIQYYLQYKDLPVSLRRGANPGFHEAIGDVLALSVSTPEHLHKIGLLDRVTNDTESDINYLLKMALEKIAFLPFGYLVDQWRWGVFSGRTPPSRYNFDWWYLRTKYQGICPPVTRNETHFDAGAKFHVPNVTPYIRYFVSFVLQFQFHEALCKEAGYEGPLHQCDIYRSTKAGAKLRKVLQAGSSRPWQEVLKDMVGLDALDAQPLLKYFQPVTQWLQEQNQQNGEVLGWPEYQWHPPLPDNYPEGIDLVTDEAEASKFVEEYDRTSQVVWNEYAEANWNYNTNITTETSKILLQKNMQIANHTLKYGTQARKFDVNQLQNTTIKRIIKKVQDLERAALPAQELEEYNKILLDMETTYSVATVCHPNGSCLQLEPDLTNVMATSRKYEDLLWAWEGWRDKAGRAILQFYPKYVELINQAARLNGYVDAGDSWRSMYETPSLEQDLERLFQELQPLYLNLHAYVRRALHRHYGAQHINLEGPIPAHLLGNMWAQTWSNIYDLVVPFPSAPSMDTTEAMLKQGWTPRRMFKEADDFFTSLGLLPVPPEFWNKSMLEKPTDGREVVCHASAWDFYNGKDFRIKQCTTVNLEDLVVAHHEMGHIQYFMQYKDLPVALREGANPGFHEAIGDVLALSVSTPKHLHSLNLLSSEGGSDEHDINFLMKMALDKIAFIPFSYLVDQWRWRVFDGSITKENYNQEWWSLRLKYQGLCPPVPRTQGDFDPGAKFHIPSSVPYIRYFVSFIIQFQFHEALCQAAGHTGPLHKCDIYQSKEAGQRLATAMKLGFSRPWPEAMQLITGQPNMSASAMLSYFKPLLDWLRTENELHGEKLGWPQYNWTPNSAR
# notes: Serum was prepared from fresh whole blood by standard techniques; from tissue; host or cells: serum (unfractionated)
# Substrate: O=C(O)CNC(=O)CNC(=O)CNC(=O)c1ccccc1
# Experiment: ACE assay: hydrolysis of ^3H-HipGlyGly by human serum, Lineweaver-Burke Km
# Format: biochemical
# Details: other: human serum, pH 8.0, 37° C., 60 min
# Description: The following sample illustrates the preferred assay method, the sensitivity of the assay and the Km for ^3 H-HipGlyGly. The reaction buffer contains 0.05 M Hepes, 0.1 M sodium chloride and 0.6 M sodium sulphate at pH 8.0. (Pepes is N-2-Hydroxyethyl piperazine N'-2-ethane sulfonic acid.) The substrate, ^3 H-HipGlyGly was dissolved in reaction buffer at a concentration of 16 mM and a specific radioactivity of about 0.15 millicuries/millimole. Serum was prepared from fresh whole blood by standard techniques. […] Hemolyzed samples were not used in the assay. Serum samples could be stored at least for one week at 2° C. to 8° C. or for at least 8 weeks frozen, prior to assaying. For the assay, 50 μl. of serum was diluted with 200 μl. of reaction buffer. […]
# A control determination of background radioactivity was made using 50 μl. of reaction buffer instead of diluted serum in the reaction mixture. […] Total radioactivity was determined by counting an amount of substrate equal to that used in the reaction mixture directly in the scintillation counter.
# Reaction velocity, in terms of nanomoles of product formed per minute per ml of serum was calculated according to the following formula: [formula] In this formula, "nmoles" means nanomoles, "min" means minutes, "ml" means milliliters and "cpm" means radioactivity counts per minute. […]
protein,measurement,value
B1,Km,6.25 mM
